Laboratory results from patent US20040087497A1 (Bristol-Myers Squibb, published 2004).
Values belong to the binder of their own block, whether it stands above or below them. Starred links: 1 amine or outer side, 2 acyl side, 3 side chain; linkers in the order of their positions; H or OH if unused. Non-standard residues stand in square brackets, D forms with d. Suc = O=C(CCC(=O)[*:2])[*:1]; Dox = doxorubicin; βAla = NCCC(=O)O

Assays:
Test in all cases: cell-based or functional assay
human CD10 [1] = biological target: T1, human CD10 (human, UniProt P08473 2-750)
human CD10 [2] = biological target: T1, human CD10; remark: listed apart in the source
human CD10 [3] = biological target: T1, human CD10; remark: listed apart in the source
human CD10 [4] = biological target: T1, human CD10; remark: listed apart in the source
[5] = biological target: Prostate Specific Antigen (PSA) (human, UniProt P07288 25-261)
human CD10 [6] = biological target: T1, human CD10; remark: listed apart in the source
human CD10 [7] = biological target: T1, human CD10; remark: listed apart in the source
human CD10 [8] = biological target: T1, human CD10; remark: listed apart in the source

T1 sequence (P08473 2-750): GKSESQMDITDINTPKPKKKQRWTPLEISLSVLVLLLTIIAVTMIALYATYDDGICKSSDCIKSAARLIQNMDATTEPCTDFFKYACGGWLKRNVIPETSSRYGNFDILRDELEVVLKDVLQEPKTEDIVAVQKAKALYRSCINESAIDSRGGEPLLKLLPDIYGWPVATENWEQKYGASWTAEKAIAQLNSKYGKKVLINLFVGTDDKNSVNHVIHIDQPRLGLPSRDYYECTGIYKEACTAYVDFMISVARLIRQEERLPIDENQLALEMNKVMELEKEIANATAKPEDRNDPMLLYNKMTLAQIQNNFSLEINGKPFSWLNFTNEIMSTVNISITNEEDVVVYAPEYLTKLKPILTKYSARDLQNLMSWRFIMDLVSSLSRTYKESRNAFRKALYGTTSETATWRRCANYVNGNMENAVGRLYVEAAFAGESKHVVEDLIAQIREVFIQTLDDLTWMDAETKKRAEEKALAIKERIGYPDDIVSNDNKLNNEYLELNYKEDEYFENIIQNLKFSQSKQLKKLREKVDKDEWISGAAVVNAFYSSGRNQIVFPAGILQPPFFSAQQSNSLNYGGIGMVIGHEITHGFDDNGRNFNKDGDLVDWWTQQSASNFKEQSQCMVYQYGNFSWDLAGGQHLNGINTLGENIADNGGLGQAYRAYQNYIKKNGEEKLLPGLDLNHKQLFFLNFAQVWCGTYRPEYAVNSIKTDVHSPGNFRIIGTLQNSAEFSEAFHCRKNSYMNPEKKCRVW
Prostate Specific Antigen (PSA), sequence (P07288 25-261 limits assumed): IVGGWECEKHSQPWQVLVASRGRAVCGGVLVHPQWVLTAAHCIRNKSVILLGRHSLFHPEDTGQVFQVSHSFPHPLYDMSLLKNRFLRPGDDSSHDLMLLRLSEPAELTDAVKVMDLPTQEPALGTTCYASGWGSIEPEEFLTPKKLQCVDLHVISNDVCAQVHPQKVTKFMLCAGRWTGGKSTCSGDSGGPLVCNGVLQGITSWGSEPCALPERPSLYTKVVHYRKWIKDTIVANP

Binder: Suc-Leu-Ala-Gly-Dox [Suc-Leu-Ala-Gly-Dox]
IC50, proliferation of HL60 cells with supernatant of compound-treated CHO Clone 8 (CD10 Pos.) (human CD10 [3]): > 25 µM | IC50, proliferation of HL60 cells with supernatant of compound-treated CHO Clone DB4 (CD10 Pos.) (human CD10 [3]): > 25 µM

Binder: Suc-Ile-Ala-Leu-Dox [Suc-Ile-Ala-Leu-Dox]
IC50, 3H-thymidine proliferation, LnCAP cells (CD10+ PSA+) (human CD10 [4]): 170 µM | IC50, 3H-thymidine proliferation, 22RV1 cells (CD10- PSA+) [5]: 14000 µM

Continued, values first:

IC50, 3H thymidine proliferation, CD10 transfected CHO Clone #3 (human CD10 [1]): 19000 µM | IC50, 3H thymidine proliferation, CD10 transfected CHO Clone #5 (human CD10 [1]): 24000 µM | IC50, 3H thymidine proliferation, CD10 transfected CHO Clone #7 (human CD10 [1]): 13000 µM | IC50, 3H thymidine proliferation, CD10 transfected CHO Clone #8 (human CD10 [1]): 10000 µM | IC50, 3H thymidine proliferation, CD10 transfected CHO clone DB4 (human CD10 [1]): 5400 µM | IC50, 3H thymidine proliferation, LnCap cells (CD10 positive) (human CD10 [1]): 510 µM | IC50, 3H thymidine proliferation, Ramos cells (human CD10 [1]): 840 µM | shift of IC50 on LNCaP cells treated with 100 nM of phosphoramidon (human CD10 [2]): 7 fold
Binder: Suc-[βAla]LAL-Dox [Suc-βAla-Leu-Ala-Leu-Dox]

IC50, proliferation of HL60 cells with supernatant of compound-treated CHO Clone 8 (CD10 Pos.) (human CD10 [3]): 2.7 µM | IC50, proliferation of HL60 cells with supernatant of compound-treated CHO Clone DB4 (CD10 Pos.) (human CD10 [3]): 5.4 µM | IC50 on LNCaP cells (CD10pos) with DL-Thiorphan 0 (human CD10 [6]): 0.51 µM | IC50 on LNCaP cells (CD10pos) with DL-Thiorphan 30 (human CD10 [6]): 2.1 µM | IC50 on LNCaP cells (CD10pos) with DL-Thiorphan 100 (human CD10 [6]): 5.3 µM | IC50 on LNCaP cells (CD10pos) with DL-Thiorphan 300 (human CD10 [6]): 8.1 µM | IC50 on LNCaP cells (CD10pos) with DL-Thiorphan 1000 (human CD10 [6]): 9.7 µM | IC50 on LNCaP cells (CD10pos) with DL-Thiorphan 3000 (human CD10 [6]): 10.5 µM | IC50 on Ramos cells (CD10pos) with DL-Thiorphan 0 (human CD10 [6]): 0.25 µM | IC50 on Ramos cells (CD10pos) with DL-Thiorphan 30 (human CD10 [6]): 0.27 µM | IC50 on Ramos cells (CD10pos) with DL-Thiorphan 100 (human CD10 [6]): 0.31 µM | IC50 on Ramos cells (CD10pos) with DL-Thiorphan 300 (human CD10 [6]): 0.28 µM | IC50 on Ramos cells (CD10pos) with DL-Thiorphan 1000 (human CD10 [6]): 0.44 µM | IC50 on Ramos cells (CD10pos) with DL-Thiorphan 3000 (human CD10 [6]): 1.1 µM | Ratio of IC50 Suc-β-Ala-Ile-Ala-Leu/Dox, CD10 transfected CHO Clone #7 (human CD10 [7]): 17 ratio | Ratio of IC50 Suc-β-Ala-Ile-Ala-Leu/Dox, CD10 transfected CHO Clone #8 (human CD10 [7]): 15 ratio | Ratio of IC50 Suc-β-Ala-Ile-Ala-Leu/Dox, CD10 transfected CHO clone DB4 (human CD10 [7]): 14 ratio | Ratio of IC50 Suc-β-Ala-Ile-Ala-Leu/Dox, LnCap cells (human CD10 [7]): 3 ratio | IC50, 3H-thymidine proliferation, LnCAP cells (CD10+ PSA+) (human CD10 [4]): 150 µM | IC50, 3H-thymidine proliferation, 22RV1 cells (CD10- PSA+) [5]: 10800 µM | IC50, 3H thymidine proliferation, CD10 transfected CHO Clone #3 (human CD10 [1]): 19000 µM | IC50, 3H thymidine proliferation, CD10 transfected CHO Clone #5 (human CD10 [1]): 19000 µM | IC50, 3H thymidine proliferation, CD10 transfected CHO Clone #7 (human CD10 [1]): 11000 µM | IC50, 3H thymidine proliferation, CD10 transfected CHO Clone #8 (human CD10 [1]): 8400 µM | IC50, 3H thymidine proliferation, CD10 transfected CHO clone DB4 (human CD10 [1]): 4200 µM | IC50, 3H thymidine proliferation, LnCap cells (CD10 positive) (human CD10 [1]): 390 µM | IC50, 3H thymidine proliferation, Ramos cells (human CD10 [1]): 440 µM | difference between IC50 of Dox and of Suc-βAla-Ile-Ala-Leu-Dox, CD10 transfected CHO cells (human CD10 [2]): ~16 fold | IC50 on LNCaP cells (CD10pos) with 0 nM phosphoramidon (human CD10 [8]): 0.24 µM | IC50 on LNCaP cells (CD10pos) with 30 nM phosphoramidon (human CD10 [8]): 1.3 µM | IC50 on LNCaP cells (CD10pos) with 100 nM phosphoramidon (human CD10 [8]): 3.3 µM | IC50 on LNCaP cells (CD10pos) with 300 nM phosphoramidon (human CD10 [8]): 7.7 µM | IC50 on LNCaP cells (CD10pos) with 1000 nM phosphoramidon (human CD10 [8]): 11.3 µM | IC50 on LNCaP cells (CD10pos) with 3000 nM phosphoramidon (human CD10 [8]): 15.4 µM | IC50 on Ramos cells (CD10pos) with 0 nM phosphoramidon (human CD10 [8]): 0.51 µM | IC50 on Ramos cells (CD10pos) with 30 nM phosphoramidon (human CD10 [8]): 2.1 µM | IC50 on Ramos cells (CD10pos) with 100 nM phosphoramidon (human CD10 [8]): 5.3 µM | IC50 on Ramos cells (CD10pos) with 300 nM phosphoramidon (human CD10 [8]): 8.1 µM | IC50 on Ramos cells (CD10pos) with 1000 nM phosphoramidon (human CD10 [8]): 9.7 µM | IC50 on Ramos cells (CD10pos) with 3000 nM phosphoramidon (human CD10 [8]): 10.5 µM
Binder: Suc-[βAla]IAL-Dox [Suc-βAla-Ile-Ala-Leu-Dox]
